Results from paper PMC5737477.

Columns and labels:
[1] = target: RAGE (full-length, recombinant);MRE11 (Mus musculus?;, UniProt Q62151;P49959 1-402;1-708, |); test: EMSA
[2] = target: RAGE (full-length, recombinant) (UniProt Q62151 1-402); test: EMSA
Sequence of RAGE (full-length, recombinant) (Q62151 whole entry): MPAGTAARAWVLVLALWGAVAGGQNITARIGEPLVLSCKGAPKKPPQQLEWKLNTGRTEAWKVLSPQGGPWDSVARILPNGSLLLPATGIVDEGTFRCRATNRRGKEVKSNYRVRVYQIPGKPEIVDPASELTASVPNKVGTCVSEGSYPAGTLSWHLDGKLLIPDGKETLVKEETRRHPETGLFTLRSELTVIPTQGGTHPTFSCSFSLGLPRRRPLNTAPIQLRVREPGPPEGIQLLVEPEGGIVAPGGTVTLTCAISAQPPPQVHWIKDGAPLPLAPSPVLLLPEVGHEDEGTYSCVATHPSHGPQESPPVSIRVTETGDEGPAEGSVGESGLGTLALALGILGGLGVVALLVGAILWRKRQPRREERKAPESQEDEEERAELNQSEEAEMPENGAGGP

Sequence of RAGE (full-length, recombinant);MRE11 (Q62151 whole entry, chain 1 of 2): as the sequence (Q62151 whole entry) above
Sequence of RAGE (full-length, recombinant);MRE11 (P49959 whole entry, chain 2 of 2): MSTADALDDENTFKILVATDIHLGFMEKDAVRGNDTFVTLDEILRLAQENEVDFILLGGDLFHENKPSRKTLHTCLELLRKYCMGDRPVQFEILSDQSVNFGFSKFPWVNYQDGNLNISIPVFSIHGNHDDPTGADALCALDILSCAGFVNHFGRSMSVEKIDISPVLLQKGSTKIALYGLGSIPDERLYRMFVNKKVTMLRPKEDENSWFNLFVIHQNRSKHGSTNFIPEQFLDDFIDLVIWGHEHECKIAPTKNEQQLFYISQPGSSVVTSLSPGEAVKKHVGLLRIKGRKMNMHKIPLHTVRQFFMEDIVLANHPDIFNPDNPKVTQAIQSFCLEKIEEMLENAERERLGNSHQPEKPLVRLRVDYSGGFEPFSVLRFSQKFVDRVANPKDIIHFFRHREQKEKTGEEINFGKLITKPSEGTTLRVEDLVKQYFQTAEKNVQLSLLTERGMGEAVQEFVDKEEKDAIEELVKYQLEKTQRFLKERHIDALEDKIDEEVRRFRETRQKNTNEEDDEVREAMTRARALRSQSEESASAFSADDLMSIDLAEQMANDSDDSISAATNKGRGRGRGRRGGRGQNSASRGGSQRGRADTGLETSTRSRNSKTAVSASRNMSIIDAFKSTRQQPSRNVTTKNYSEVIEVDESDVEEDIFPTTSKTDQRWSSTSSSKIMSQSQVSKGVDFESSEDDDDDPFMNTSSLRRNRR

B1: RAGE EM-F/EM-R 64mer dsDNA probe (dsDNA)
DNA 1: GGACTCCAGGTCCAGGACCGCCGTTTTTCGCGCGCACGGCGCGGGAGGTCCAGCTGGTCCACCTCC
DNA 2: GGAGGTGGACCAGCTGGACCTCCCGCGCCGTGCGCGCGAAAAACGGCGGTCCTGGACCTGGAGTCC
B1: binds [1]; binds [2].
